Measurements reported in patent publication US20150374663A1.
Ends that are not written are not given here.

Legend:
[1] = biological target: type V tartrate-resistant acid phosphatase (TRAP) protein, immobilised on CM5 sensor chip; assay: SPR, TRAP-functionalized surface; lower end of the range told of the peptide-functionalized polymers, tied to the 20% polymer through Table 1
[2] = biological target: type V tartrate-resistant acid phosphatase (TRAP) protein, immobilised on CM5 sensor chip; assay: SPR, TRAP-functionalized surface, binding curve fit (n = 2, Ave. ± StDev)
[3] = biological target: type V tartrate-resistant acid phosphatase (TRAP) protein, immobilised on CM5 sensor chip; assay: SPR, TRAP amine-coupled to CM5 chip, initial rate analysis of sensorgrams
[4] = biological target: type V tartrate-resistant acid phosphatase (TRAP) protein, immobilised on CM5 sensor chip; assay: SPR, TRAP-functionalized surface; upper end of the range told of the peptide-functionalized polymers, tied to the 5% polymer through Table 1

| Kd [2] [µM] | Kd [3] [µM] | Binder | also measured |
| --- | --- | --- | --- |
| 7.5 | – | TPLSYLKGLVTVG-OH (not fully specified (N-terminus); also: RAFT random copolymer with PEG monomethyl ether methacrylate) [20% peptide monomer TBP-functionalized PEG polymer of Table 1 (Mn 26700 Da, 17.1% peptide incorporated), listing 1 of 3 here] | Kd [1]: 7.1 to 21 µM |
| – | 80 | TPLSYLKGLVTVG-OH (not fully specified (N-terminus); also: RAFT copolymer with PEG methyl ether methacrylate (300 Da), about 5 peptides per chain) [5% TBP-functionalized PEG polymer of Table 4, M:CTA:I 250:1:0.1, Mn 42.3 kDa] | – |
| – | 70 | TPLSYLKGLVTVG-OH (not fully specified (N-terminus); also: RAFT copolymer with PEG methyl ether methacrylate (300 Da), about 12 peptides per chain) [20% TBP-functionalized PEG polymer of Table 4, M:CTA:I 500:1:0.1, Mn 32.7 kDa] | – |
| – | 140 | TPLSYLKGLVTVG-OH (not fully specified (N-terminus); also: RAFT copolymer with PEG methyl ether methacrylate (300 Da), about 11 peptides per chain) [5% TBP-functionalized PEG polymer of Table 4, M:CTA:I 600:1:0.1, Mn 98.2 kDa] | – |
| 12.7 | – | TPLSYLKGLVTVG-OH (not fully specified (N-terminus); also: RAFT random copolymer with PEG monomethyl ether methacrylate) [10% peptide monomer TBP-functionalized PEG polymer of Table 1 (Mn 69000 Da, 7.5% peptide incorporated), listing 2 of 3 here] | – |
| – | 70 | TPLSYLKGLVTVG-OH (not fully specified (N-terminus); also: RAFT copolymer with PEG methyl ether methacrylate (300 Da), about 3 peptides per chain) [5% TBP-functionalized PEG polymer of Table 4, M:CTA:I 125:1:0.1, Mn 17.1 kDa] | – |
| 21.7 | – | TPLSYLKGLVTVG-OH (not fully specified (N-terminus); also: RAFT random copolymer with PEG monomethyl ether methacrylate) [5% peptide monomer TBP-functionalized PEG polymer of Table 1 (Mn 103900 Da, 3.9% peptide incorporated), listing 3 of 3 here] | Kd [4]: 7.1 to 21 µM |
